Data taken from US20170158755A1.
Changes are numbered by the printed parent chain.

B1: Fab fragment of humanized 19C12 H2L4 (Fab, V domains shown)
VH: QVQLQQSGAELVKPGASVKVSCKASGYAFSTYWMNWVRQAPGQGLEWIGQIYPGDGDTNYNGKFKGRVTITADKSTSTAYMELSSLRSEDTAVYFCARSDGYYDYWGQGTTVTVSS
VL: NIVLTQSPASLAVSLGERATISCRASESVDSYGTSFMHWYQQKPGQPPKLLISLASSLESGVPARFSGSGSGTDFTLTISPVEAEDAATYYCQQNNEDPPTFGAGTKLEIKR
B2: Fab fragment of chimeric 19C12 (Fab, V domains shown)
VH: QVQLQQSGAELVKPGASVKISCKASGYAFSTYWMNWVKQRPGEGLEWIGQIYPGDGDTNYNGKFKGKATLTADKSSSTAYMQLSSLTSEDSAVYFCARSDGYYDYWGQGTTLTVSS
VL: B1 VL with E17Q, S53C, G72R, S80D, E85D, I110L
B3: Fab fragment of humanized 19C12 H3L6 (Fab, V domains shown)
VH: B1 VH with Q1E
VL: B1 VL with N1D
B4: Fab fragment of humanized 19C12 H2L6 (Fab, V domains shown)
VH: B1 VH
VL: B1 VL with N1D
B5: Fab fragment of humanized 19C12 H2L3 (Fab, V domains shown)
VH: B1 VH
VL: B1 VL with S53C, G72R, S80D
B6: chimeric 19C12 antibody (antibody, V domains shown)
VH: B2 VH
VL: B1 VL with E17Q, S53C, G72R, S80D, E85D, I110L
B7: humanized 19C12 antibody H2L3 (antibody, V domains shown)
VH: B1 VH
VL: B1 VL with S53C, G72R, S80D
B8: humanized 19C12 antibody H2L4 (antibody, V domains shown)
VH: B1 VH
VL: B1 VL
B9: humanized 19C12 antibody H3L6 (antibody, V domains shown)
VH: B1 VH with Q1E
VL: B1 VL with N1D
B10: humanized 19C12 antibody H2L6 (antibody, V domains shown)
VH: B1 VH
VL: B1 VL with N1D

target: His-LAMA4 as used in Example 6 (species not stated) (Homo sapiens (Human)) (UniProt Q16363); experiment: Biacore SPR, Fab, steady-state approximation

Binder | Kd
B1 | 7100 pM
B2 | 980 pM
B3 | 7200 pM
B4 | 8400 pM
B5 | 1900 pM

target: His-LAMA4 as used in Example 6 (species not stated) (Homo sapiens (Human)) (UniProt Q16363); experiment: ForteBio BLI, LAMA-His on anti-His sensor, antibody 16.7 nM

Binder | Kd | Response | koff | kon
B6 | 53.8 pM | 1.27 | 0.000403 s⁻¹ | 7.49e+06 M⁻¹ s⁻¹
B7 | 50.7 pM | 1.34 | 0.000363 s⁻¹ | 7.16e+06 M⁻¹ s⁻¹
B8 | 22.7 pM | 1.26 | 0.000227 s⁻¹ | 9.98e+06 M⁻¹ s⁻¹
B9 | 62.6 pM | 1.21 | 0.000501 s⁻¹ | 8.01e+06 M⁻¹ s⁻¹

target: His-LAMA4 as used in Example 6 (species not stated) (Homo sapiens (Human)) (UniProt Q16363); experiment: ForteBio BLI, LAMA-His on anti-His sensor, antibody 33.3 nM

Binder | Kd | Response | koff | kon
B6 | 111 pM | 1.38 | 0.000487 s⁻¹ | 4.37e+06 M⁻¹ s⁻¹
B7 | 115 pM | 1.54 | 0.000493 s⁻¹ | 4.29e+06 M⁻¹ s⁻¹
B8 | 127 pM | 1.25 | 0.00062 s⁻¹ | 4.87e+06 M⁻¹ s⁻¹
B9 | 113 pM | 1.38 | 0.000553 s⁻¹ | 4.89e+06 M⁻¹ s⁻¹
B10 | 123 pM | 1.26 | 0.000585 s⁻¹ | 4.75e+06 M⁻¹ s⁻¹

target: His-LAMA4 as used in Example 6 (species not stated) (Homo sapiens (Human)) (UniProt Q16363); experiment: ForteBio BLI, LAMA-His on anti-His sensor, antibody 8.33 nM

Binder | Kd | Response | koff | kon
B6 | 12.6 pM | 1.15 | 0.000251 s⁻¹ | 2e+07 M⁻¹ s⁻¹
B7 | 12.4 pM | 1.23 | 0.000256 s⁻¹ | 2.07e+07 M⁻¹ s⁻¹
B8 | 16.1 pM | 1.18 | 0.000268 s⁻¹ | 1.67e+07 M⁻¹ s⁻¹
B9 | 13.5 pM | 1.2 | 0.000286 s⁻¹ | 2.11e+07 M⁻¹ s⁻¹
B10 | 15.4 pM | 1.13 | 0.000308 s⁻¹ | 2e+07 M⁻¹ s⁻¹

target: His-LAMA4 as used in Example 6 (species not stated) (Homo sapiens (Human)) (UniProt Q16363); experiment: Biacore SPR, Fab over His-laminin-α4 captured on anti-6xHis

Binder | Kd | koff | kon
B2 | 620 pM | 0.0059 s⁻¹ | –
B5 | 780 pM | 0.0077 s⁻¹ | 9.8e+06 M⁻¹ s⁻¹

target: His-LAMA4 as used in Example 6 (species not stated) (Homo sapiens (Human)) (UniProt Q16363); experiment: Biacore SPR, Fab over His-laminin-α4 captured on anti-6xHis; Fab, not IgG; kinetic fit

Binder | kon
B2 | 9.5e+06 M⁻¹ s⁻¹

target: His-LAMA4 as used in Example 6 (species not stated) (Homo sapiens (Human)) (UniProt Q16363); experiment: Biacore, steady-state approximation; IgG loaded on anti-human Fc sensor, free laminin α4 as analyte

Binder | Kd
B9 | 1360 pM

target: His-LAMA4 as used in Example 6 (species not stated) (Homo sapiens (Human)) (UniProt Q16363); experiment: Biacore, steady-state approximation; IgG loaded on anti-human Fc sensor, free laminin α4 as analyte; IgG on anti-human Fc sensor, free laminin α4 as analyte; steady state

Binder | Kd
B7 | 1860 pM
